Consider 167 variants from the RNAGym collection of RNA variant scans (doi:10.1073/pnas.2313332121).

To fix the notation:
B1: TPR t1 (parent)
chain: GACCAAUCUGCCCUCAGAGCUCGAGAACAUCUUCGGAUGCAGAGGAGGCAGGCUUCGGUGGCGCGAUAGCGCCAACGUCCUCAACCUCCAAUGCAUCCCACCACAUGAUGAUGCCUGAAGAGCCUUGGUUUUUUG

This series covers variants of B1. Put plainly: polymerase ribozyme fitness, log enrichment relative to wild type (log ratio); higher = more active; in vitro selection for triplet polymerase activity. The gist of the method: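 Mutant libraries for each subunit of a heterodimeric triplet polymerase ribozyme were made by PCR and then transcribed. Each library underwent one round of in vitro selection in triplicate: annealing with a biotinylated primer, the partner subunit and triplets, frozen incubation at −7 °C, gel excision of extended constructs, streptavidin-bead capture and RT-PCR. Input and output libraries were Illumina-sequenced, and only genotypes with ≥10 input reads and ≥1 read per output were kept. Fitness is the logarithm, base 2, of genotype enrichment over wild-type enrichment, computed from inverse-variance-weighted replicate averages.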
Consider U21A C104U G117A G120U, for which the “polymerase ribozyme fitness (log ratio)” value was -3.67.
Take C49G C70G G77U U78A C85A: the “polymerase ribozyme fitness (log ratio)” value was -2.95.
For the variant C8A G63A C98A, the “polymerase ribozyme fitness (log ratio)” value is -5.9.
With G47U C73A C85U, the “polymerase ribozyme fitness (log ratio)” value is -1.61.
For C31U G51A C73U U106A, the “polymerase ribozyme fitness (log ratio)” value was -3.91.
For the variant C53G A90C, the “polymerase ribozyme fitness (log ratio)” value was -2.02.
As for A24G A75U, the figure is -2.53; as for C79A U106G, -3.37.
In the case of A41G U81A G117U, the “polymerase ribozyme fitness (log ratio)” value is -5.27.
Consider C13U A29G G52U A74C, for which the “polymerase ribozyme fitness (log ratio)” value is -1.84.
G10U U78C C86U G110A: the “polymerase ribozyme fitness (log ratio)” value was -1.98.
Turning to C12A G77U G110C U130C, the “polymerase ribozyme fitness (log ratio)” value is -3.57.
As to G42A C98U, the “polymerase ribozyme fitness (log ratio)” value was -2.55.
With A41C G128C, the “polymerase ribozyme fitness (log ratio)” value was -3.34.
To G51C G63U A84U U112G U132A belongs -5.83; to C12U C15U C72A A121U, 1.3.
As for C34U G69A, the figure is -5.14; as for G61U U81C C82U A121C, 0.807.
Regarding G57U G69C, the “polymerase ribozyme fitness (log ratio)” value was -0.847.
Regarding C64U G117C C123U, the “polymerase ribozyme fitness (log ratio)” value was -4.94.
In the case of C8U C101A U112A, the “polymerase ribozyme fitness (log ratio)” value is 1.32.
C72G C88A G113U G127C: the “polymerase ribozyme fitness (log ratio)” value is -5.08.
As for C3G G61U, the “polymerase ribozyme fitness (log ratio)” value was -1.85.
With C70U A84G, the “polymerase ribozyme fitness (log ratio)” value was -1.86.
As to G61U A84G G93U G120U, the “polymerase ribozyme fitness (log ratio)” value is -0.773.
Turning to C8U G117C, the “polymerase ribozyme fitness (log ratio)” value was -3.02.
Regarding G19A G48U G63A U96G C101A G113U, the “polymerase ribozyme fitness (log ratio)” value is -5.6.
As for G17C A43U G61A U87G G120C, the figure is -1.48; as for A2U U59C, -2.87.
As to G45A G51A C72U, the “polymerase ribozyme fitness (log ratio)” value was -3.6.
Turning to C20A C40A C76G C124A, the “polymerase ribozyme fitness (log ratio)” value is -2.76.
Consider C15A A111U, for which the “polymerase ribozyme fitness (log ratio)” value was -5.13.
As for U33A C97U, the figure is -5.53; as for A5C C11G C85G, -1.61; as for A37G G52A G61U, -3.07.
As to C13U A16C A91G C104U, the “polymerase ribozyme fitness (log ratio)” value is -1.72.
For the variant C4U G52U G128U, the “polymerase ribozyme fitness (log ratio)” value was -2.66.
On to C73U G93C G113A C124G, for which the “polymerase ribozyme fitness (log ratio)” value is -1.29.
For C8A C34A G42U, the “polymerase ribozyme fitness (log ratio)” value was -4.61.
With U54A G71U C79U G93A C94U, the “polymerase ribozyme fitness (log ratio)” value is -2.4.
For G52A U126C, the “polymerase ribozyme fitness (log ratio)” value is -1.17.
For A2G U87G A95U G110A, the “polymerase ribozyme fitness (log ratio)” value was -0.979.
As to C8U G128A, the “polymerase ribozyme fitness (log ratio)” value is -1.25.
For G10U G113C U125A, the “polymerase ribozyme fitness (log ratio)” value is -3.42.
As for A2G C22G A26G A84U G122A U130C, the figure is -5.4; as for C8U G19A A46U C73A G110U, -5.19; as for C11G C88A, -0.146.
As to A16U G71U U106G A111U, the “polymerase ribozyme fitness (log ratio)” value is -5.64.
As for A29U G39U G61A G122A, the “polymerase ribozyme fitness (log ratio)” value is -3.23.
To A6G A95C belongs -1.16; to U32C C49G C73G C88G A95C, -5.8.
For C12A A111C, the “polymerase ribozyme fitness (log ratio)” value is -0.641.
With G48C G57U U96C, the “polymerase ribozyme fitness (log ratio)” value was -0.888.
To A5G G69C belongs -1.4; to U7G G117C, -1.81; to A105C U133A, -2.08.
Regarding U9C U92A, the “polymerase ribozyme fitness (log ratio)” value was -1.27.
For G69U G71C, the “polymerase ribozyme fitness (log ratio)” value was -2.52.
Regarding A2C C4U G36U C104U, the “polymerase ribozyme fitness (log ratio)” value is -2.28.
C12U G44C C102U: the “polymerase ribozyme fitness (log ratio)” value is -2.5.
C49G A90U G113U: the “polymerase ribozyme fitness (log ratio)” value was -3.57.
On to C13U C56U U81G A90G, for which the “polymerase ribozyme fitness (log ratio)” value was -0.257.
As for A5C U9A C40U G63U G135U, the figure is -2.96; as for G19U G110U, -5.11.
As for C62A G113A, the figure is -2.02; as for U78C C88A U106G C114G, -3.35.
As to G17U, the “polymerase ribozyme fitness (log ratio)” value is -2.29.
Regarding A6U G45C C101U G110C, the “polymerase ribozyme fitness (log ratio)” value was -5.31.
Consider C15A C20G G71U A91C C98G C123U U133G, for which the “polymerase ribozyme fitness (log ratio)” value was -4.96.
With C12G G57C, the “polymerase ribozyme fitness (log ratio)” value is -0.0296.
As for A27U C76A G113A A119U, the figure is -6.73.
In the case of G10A G61A C94U, the “polymerase ribozyme fitness (log ratio)” value is -0.166.
For C88U G107A, the “polymerase ribozyme fitness (log ratio)” value was -6.88.
For the variant C34A U78A, the “polymerase ribozyme fitness (log ratio)” value is -3.26.
In the case of A18U G61A C123G, the “polymerase ribozyme fitness (log ratio)” value turned out to be 0.0966.
G63U C101U: the “polymerase ribozyme fitness (log ratio)” value was -2.57.
As for G42U G93C, the figure is -2.17.
G58A C102U C114A: the “polymerase ribozyme fitness (log ratio)” value is -4.78.
In the case of C8A A50C C97G, the “polymerase ribozyme fitness (log ratio)” value is -4.72.
Consider C40U A50U G52U U87A C102A U106A A118G, for which the “polymerase ribozyme fitness (log ratio)” value is -7.38.
For the variant U14G G71U G93U A105U, the “polymerase ribozyme fitness (log ratio)” value was -6.14.
For G69U G117U, the “polymerase ribozyme fitness (log ratio)” value was -1.07.
As for A5G G61A C94A, the figure is -0.707; as for A46C G69A C72A, -4.32.
Consider G63C C72A C79G, for which the “polymerase ribozyme fitness (log ratio)” value was -5.56.
Take U54G G71U A75C C98U U125C: the “polymerase ribozyme fitness (log ratio)” value is -4.29.
Take C34G U87G U109A: the “polymerase ribozyme fitness (log ratio)” value is -6.29.
As to A43U U81A C85G C124U, the “polymerase ribozyme fitness (log ratio)” value was -4.75.
As to C102U G110C, the “polymerase ribozyme fitness (log ratio)” value was -7.27.
With C12G U21C C101U A105U, the “polymerase ribozyme fitness (log ratio)” value is -4.94.
As for C8A U132A, the “polymerase ribozyme fitness (log ratio)” value was found to be 0.369.
Consider C34A G47C C82U A91G G120U, for which the “polymerase ribozyme fitness (log ratio)” value is -7.66.
With C8G A37U A90U G93C U132A, the “polymerase ribozyme fitness (log ratio)” value is -2.23.
Turning to C70A C72G, the “polymerase ribozyme fitness (log ratio)” value was -4.19.
With G61A A83U G117C, the “polymerase ribozyme fitness (log ratio)” value was -4.17.
G10A G51U C101A: the “polymerase ribozyme fitness (log ratio)” value is -4.71.
As to C15A C28G, the “polymerase ribozyme fitness (log ratio)” value is -4.4.
As for A29U G47C A119G, the figure is -2.66; as for G63A G120A G135C, -0.591.
As for G52U G63C U92A, the figure is -4.96; as for A75G C79U, -0.682.
Consider C49U G52A G71C, for which the “polymerase ribozyme fitness (log ratio)” value is -5.43.
As for C62A U87A U92A U116C, the figure is -6.88; as for A5C G45U, -1.36; as for G35C A111C, -4.47.
Consider C12U C28U U78A A100C G113A, for which the “polymerase ribozyme fitness (log ratio)” value was -3.61.
Consider C99A C124A, for which the “polymerase ribozyme fitness (log ratio)” value was -4.35.
In the case of C13U C73G C82U, the “polymerase ribozyme fitness (log ratio)” value is -1.5.
As for G10A G17A, the “polymerase ribozyme fitness (log ratio)” value is -3.1.
To C3U A43G U55G A111G U126A belongs -4.64; to C49U G52C G63U C124A, -0.717.
Consider A26G C49U C73A, for which the “polymerase ribozyme fitness (log ratio)” value is -2.93.
Regarding C115U G120A U131A, the “polymerase ribozyme fitness (log ratio)” value is -2.07.
C73G A75U A83U: the “polymerase ribozyme fitness (log ratio)” value was -1.08.
With G63U C101A U116C A119G G120U, the “polymerase ribozyme fitness (log ratio)” value was -3.85.
Regarding G36A C70A C114A, the “polymerase ribozyme fitness (log ratio)” value is -5.75.
Consider G117A U125G, for which the “polymerase ribozyme fitness (log ratio)” value is -1.64.
U54A U112A G117C: the “polymerase ribozyme fitness (log ratio)” value was -3.84.
As to C40G C62U U87G, the “polymerase ribozyme fitness (log ratio)” value was -1.61.
On to G47C C82U C114A, for which the “polymerase ribozyme fitness (log ratio)” value was -2.65.
As to C12U G61A U92A U126A, the “polymerase ribozyme fitness (log ratio)” value is -4.38.
As for C11G A46G U106G G128U, the figure is -2.63; as for C13G G48A G63A A83C, -3.74.
As for G51C C82A, the “polymerase ribozyme fitness (log ratio)” value was -4.42.
As to C15A A27C U55G A111U, the “polymerase ribozyme fitness (log ratio)” value was -6.51.
For C72U U78C, the “polymerase ribozyme fitness (log ratio)” value is -0.528.
U112C G128U: the “polymerase ribozyme fitness (log ratio)” value is -0.242.
G120C G135C: the “polymerase ribozyme fitness (log ratio)” value was 1.48.
Turning to C8G G19A A119G, the “polymerase ribozyme fitness (log ratio)” value is -1.07.
For the variant A37U U78C, the “polymerase ribozyme fitness (log ratio)” value is -0.461.
To C3A G127U belongs -0.622; to A43G A50G G63C, -3.02; to G44C C102A G120U, -4.59.
As for U87A A108C G110A, the figure is -6.14.
As for A111C C115A, the figure is -3.19; as for A5G A50C, -0.262; as for G23A G69U C115U C123G, -6.34.
For the variant U7G G10C G45A G47A U59G A66C G77A, the “polymerase ribozyme fitness (log ratio)” value is -2.15.
Turning to U32G A43C C73U C97G G117A, the “polymerase ribozyme fitness (log ratio)” value was -6.86.
As for C13U U109G, the figure is -4.64; as for G36U G110C, -4.93; as for C53A C72U U87A G107U, -4.92.
To C8U A41G C64G belongs -6.15; to G17U U87A U106A G128A, -3.83; to C73G C98U U129C, -1.94.
To G61A U116C belongs -0.278; to C82A A105U, -2.27; to A24U G47A G52A G61A C101G C114G G122A, -7.25.
For G51C G93C, the “polymerase ribozyme fitness (log ratio)” value was -4.73.
To C11U G17A belongs -3.
Take C8A G44U: the “polymerase ribozyme fitness (log ratio)” value is -0.208.
For G63U U78C C101A, the “polymerase ribozyme fitness (log ratio)” value was -4.07.
On to C4G U9A C89A C115A G117C, for which the “polymerase ribozyme fitness (log ratio)” value was -4.91.
For G57A C73G G127C, the “polymerase ribozyme fitness (log ratio)” value is -2.37.
Consider C20A C40U, for which the “polymerase ribozyme fitness (log ratio)” value is -3.35.
For the variant C13U A16C A84U U129A, the “polymerase ribozyme fitness (log ratio)” value was -3.48.
To G57U U129G belongs -1.65; to C31A G61A C94U C97U C123U, -6.35; to G39U G61A, -0.103.
To G44C belongs -0.805; to C8G C72A C89A C94G, -1.88.
Take C3U C86U C101G: the “polymerase ribozyme fitness (log ratio)” value was -1.68.
Turning to G45C G71U A91G C101U G110A, the “polymerase ribozyme fitness (log ratio)” value is -5.08.
To C73U A84G G117C belongs -4.85; to U9C G51U G61C C97A G120A U130C, -4.88; to C22G A83U C89G A121G, -3.33.
As to C49G C70U G113U U125C U131G, the “polymerase ribozyme fitness (log ratio)” value is -6.12.
